Assay results: paper PMC5910400

Biological target: CXCL8 (human)

B1: P1156 (evasin from Ixodes ricinus), purified, C-terminal StrepII:His tag (natural protein)
chain: DGGADDDNELFTVQYCGMNCTKDEGGTWTGCTGKKEGCKCYHESGKNYGLCLSTEYTDFSQYGNPSDSEIEAAKPKRSDTLSH
Q: For B1, which mean IC50 (three biological replicates) of inhibition of primary human granulocyte migration induced by the EC80 dose of CXCL8 is on record?
A: 1.8e-09 M
